Measured values: the supplement of paper PMC10567573
± gives the standard deviation.

Test: protein stability index of a GFP-peptide fusion (GPS, HEK-293T) (PSI 1-6); higher = more stable
[1] = treatment: DMSO, c terminus: a fixed tail appended
[2] = treatment: MLN4924 1 uM, 8 h, c terminus: a fixed tail appended
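Also: 24-mer peptide tiles fused after GFP, lentivirally expressed, FACS-sorted into six equal bins by GFP/DsRed ratio, decoded by Illumina sequencing, PSI is the read-weighted mean bin number.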

Sequence	protein stability index [1]	protein stability index [2]	protein stability index (treatment: DMSO, c terminus: native)	protein stability index (treatment: MLN4924 1 uM, 8 h, c terminus: native)
LAQAAGFAPQTGARPSETFARFCK [DNAAF3]	3.52 ± 0.23	3.57 ± 0.4		
LASTSKPVVKLLHNRSNNKYSYTS [KCTD13]	3.08 ± 0.2	3.27 ± 0.28		
LAVCLAPSLFHLNTLKRENSSPRV [DLC1]	2.24 ± 0.24	2.11 ± 0.2		
LCPGDLIQAINGESTELMTHLEAQ [PDLIM4]	4.51 ± 0.26	4.54 ± 0.094		
LCQCHEGFALNPDKKTCTKIDYCA [MATN2]	2.95 ± 0.29	3.35 ± 0.6		
LDMDEGTLSFIVDGQYLGVAFRGL [SPSB4]	2.6 ± 0.46	2.26 ± 0.59		
LDQAPKARKYFERLPGGGWTLRRT [DYRK1B]	3.48 ± 0.27	3.33 ± 0.33		
LDQLLRHVMNPLETLSITNCRLSE [PRAME]	2.59 ± 0.62	2.39 ± 0.49		
LDRHQLPLDDALLSFAHANCTLII [DPCD]	2.69 ± 0.56	2.63 ± 0.48		
LEALIDTIQKQLKDHSCKDNIREA [EFHC1]	3.55 ± 0.21	3.65 ± 0.25		
LEAPEDIGSTSESKDWEEVVVESM [MIA2]	5.4 ± 0.23	5.58 ± 0.013		
LEELIDMAVLEEIQQELIKQEQSI [RPAIN]	3.34 ± 0.31	3.44 ± 0.3		
LEENELTSLAEDLLGLTDPNGGLA [TRADD]	4.49 ± 0.27	4.43 ± 0.29		
LEKEIEVLERGDSAPATAKENAAA [PALM]	5.34 ± 0.2	5.62 ± 0.2		
LEKGLEPEPQVPGPAHGPAQEEPW [ZNF232]	5.35 ± 0.46	5.35 ± 0.25		
LENLCENASTLRTINIKCHVHDPH [FBXO39]	3.59 ± 0.27	3.59 ± 0.036		
LEQFVTRFLLKETLNQLQSLQNSL [NECAB1]	2.87 ± 1.3	2.76 ± 0.27		
LEVNRLMGKLLQQPNTYADFEFLA [PKD2L1]	2.17 ± 0.37	2.48 ± 0.14		
LFFPEGTCSNKKALLKFKPGAFIA [LPCAT4]	1.86 ± 0.38	2.41 ± 0.25		
LFGHPGLDMELGPSQGQETNEVCE [ADAMTSL2]		5.29 ± 0.35		
LFQRKLSWIKMTKLEYEEIALDLT [FAN1]	3.02 ± 0.39	2.45 ± 0.24		
LFSDDYGGKNCKKPAEYGYVSLGR [CEBPB]	3.02 ± 0.31	3.2 ± 0.33		
LGLRSLIPAVLTVSMLGYPFILPD [MYORG]	3.1 ± 0.55	3.07 ± 0.36		

Sequence	protein stability index [1]	protein stability index [2]	protein stability index (treatment: DMSO, c terminus: native)	protein stability index (treatment: MLN4924 1 uM, 8 h, c terminus: native)
LGQNDTGFSCDGTANTFRVMFKEP [BTBD1]	3.36 ± 0.2	3.29 ± 0.31		
LGVIQRDLAKTGCVDLTITNLLEG [AUP1]	2.52 ± 0.18	2.61 ± 0.46		
LGYFIRSWRTLAILVNLQGTVVFL [SLC22A15]	2.71 ± 0.55	2.62 ± 0.75		
LGYLLDKETLRLHPDIFLPSEICD [ZER1]	2.4 ± 0.21	2.46 ± 0.17		
LHIFQLNEDGPSSENLEEETENII [TRIP13]	3.96 ± 0.58	4.21 ± 0.28		
LHPFFAGLTPEERSFHTSRNPSR [CLK3]			2.72 ± 0.38	2.73 ± 0.52
LHPRGKNNFSPLHLAVDKNTTCVG [FEM1C]	3.39 ± 0.13	3.43 ± 0.12		
LHSHRHLYPEGIGARQQQVTTYLH [POMT2]	2.76 ± 0.21	2.82 ± 0.2		
LIPLANTGIVNHTHSRMGSIMSTG [CARM1]	2.59 ± 0.12	2.47 ± 0.14		
LKIELETYKLKCKALQEENRDLRK [CCDC6]	4.25 ± 0.29	4.63 ± 0.23		
LKLTVVEDVTVGRRQAVAWLVAMH [ZFYVE21]	3.15 ± 0.56	2.91 ± 0.57		
LKNEVERLKKQLRAAQLQHSEKMA [CCDC6]	2.83 ± 0.32	3.14 ± 0.25		
LLARLRELEQQIWKERDEYITKVS [TRIM15]	1.98 ± 0.36	1.96 ± 0.56		
LLCNAITGITLLRVKFKSQQHRQG [PTGFR]	2.38 ± 0.46	2.21 ± 0.77		
LLECYIQYHHSKIRNRGYNLIYRS [TMEM192]	2.71 ± 0.5	2.73 ± 0.6		
LLGLRTFVAFAAKLWSFFIYLLRR [CTDNEP1]	4.28 ± 0.38	4.16 ± 0.3		
LLGSSTACIVVLDRTSHRLHTANL [PPTC7]	2.66 ± 0.39	2.46 ± 0.32		
LLKDKVRERIQILKTSEVTQHLPR [PTPN9]	2.7 ± 0.32	2.99 ± 0.075		
LLLLLLASLLPSARLASPLPREEE [ADAMTS4]	2.56 ± 0.07	3.08 ± 0.55		
LLLPGLNQHGIILKYIGMAKREIN [ARL6IP1]	2.42 ± 0.68	2.38 ± 0.97		
LLMVRASRRSGKTSAVLKAGRQSV [C6orf223]	2.63 ± 0.17	2.85 ± 0.19		
LLNTDLHGHNIGKKMSCQQFIANL [PSD2]	2.24 ± 0.29	2.46 ± 0.13		
